The source of these data is paper PMC12343034, “ArnR binds a [4Fe–4S] cluster and indirectly senses anaerobicity in Corynebacteria”.

Data set [1] deals with T1, ArnR ([4Fe-4S] form) (Corynebacterium glutamicum ATCC 13032, UniProt Q8NR72 1-230).
T1 sequence: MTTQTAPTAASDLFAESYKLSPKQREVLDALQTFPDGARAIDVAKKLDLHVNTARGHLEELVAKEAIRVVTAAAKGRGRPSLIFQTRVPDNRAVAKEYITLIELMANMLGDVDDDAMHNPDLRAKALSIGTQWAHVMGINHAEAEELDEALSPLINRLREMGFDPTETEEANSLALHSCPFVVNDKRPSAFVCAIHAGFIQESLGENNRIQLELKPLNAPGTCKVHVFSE
Description: EMSA; [4Fe-4S]; maximal binding at ~315 nM [4Fe-4S] (~32-fold over DNA); SPR: HBS+P (10 mM HEPES, 150 mM NaCl, surfactant P20) with 1 mM DTT, pH 7.4, 25 C, anaerobic; EMSA: 10 mM Tris, 54 mM KCl, 0.3% glycerol, pH 7.5, on ice; native MS: DNA in 100 mM ammonium acetate, pH 8. Conditions: protein: recombinant; tags: C-terminal His; chain copies: 2; label: 5' 6-FAM on strand 1; blunt. In general terms: In EMSA bound probe runs differently from free probe, usually more slowly.

Data set [2] deals with T1, ArnR ([4Fe-4S] form). Description: native MS; [4Fe-4S], two clusters per dimer; complex at 71438 Da; [4Fe-4S]:[DNA] ~1; SPR: HBS+P (10 mM HEPES, 150 mM NaCl, surfactant P20) with 1 mM DTT, pH 7.4, 25 C, anaerobic; EMSA: 10 mM Tris, 54 mM KCl, 0.3% glycerol, pH 7.5, on ice; native MS: DNA in 100 mM ammonium acetate, pH 8. Conditions: protein: recombinant; tags: C-terminal His; chain copies: 2; blunt.

B1: hmp promoter 80 bp (JC01_F/JC02_R) (dsDNA)
DNA 1: CGCCTTTCCATGCTTCATGGGTTAATTTCTACGGATTTAATCTAATTAAATAAATCCCAGGATCCAAGCAATTTGGCCTT
DNA 2: AAGGCCAAATTGCTTGGATCCTGGGATTTATTTAATTAGATTAAATCCGTAGAAATTAACCCATGAAGCATGGAAAGGCG
With B1, the binding result with ArnR ([4Fe-4S] form) [1] is listed as “binds”.

B2: hmp promoter 30 bp (JC05_F/JC06_R) (dsDNA)
DNA 1: GGATTTAATCTAATTAAATAAATCCCAGGA
DNA 2: TCCTGGGATTTATTTAATTAGATTAAATCC
For the molecule B2, the binding result in the data set with ArnR ([4Fe-4S] form) [2] is “binds”.
